Patent US20140348834A1 (published 2014)
Like-named read-outs stand apart in the source and are kept apart here.

Columns and labels:
human IL-17A [1] = target: T1, human IL-17A (human, UniProt Q16552 24-155); test: cell-based or functional assay
T1 sequence (Q16552 24-155): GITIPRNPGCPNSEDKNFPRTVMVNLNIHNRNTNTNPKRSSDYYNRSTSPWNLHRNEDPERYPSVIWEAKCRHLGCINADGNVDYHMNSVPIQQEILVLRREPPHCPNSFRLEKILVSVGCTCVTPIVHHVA

cynomolgus monkey IL-17A = cynomolgus monkey IL-17A (cynomolgus monkey, UniProt A0A2K5TTB0 24-155); test: cell-based or functional assay
human IL-17A [2] = target: T1, human IL-17A; test: hIL17A ELISA
[3] = target: cynomolgous monkey (cyno) IL-17A (cynomolgus monkey, UniProt A0A2K5TTB0 24-155); test: cell-based or functional assay
Sequence of cynomolgous monkey (cyno) IL-17A (A0A2K5TTB0 entry or part of it): as the sequence (Q16552 24-155) above, with T3A, P8S, N34S, I77V, N78K, P104R counted along it

human IL-17A/F = human IL-17A/F (human, UniProt Q16552 24-155; Q96PD4 31-163); test: cell-based or functional assay
Sequence of human IL-17A/F (Q16552 24-155 limits assumed, chain 1 of 2): as the sequence (Q16552 24-155) above
Sequence of human IL-17A/F (Q96PD4 31-163 limits assumed, chain 2 of 2): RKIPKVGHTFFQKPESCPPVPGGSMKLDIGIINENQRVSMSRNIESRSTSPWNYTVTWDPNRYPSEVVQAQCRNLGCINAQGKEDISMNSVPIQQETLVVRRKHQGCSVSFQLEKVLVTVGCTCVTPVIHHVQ

human IL-17A [4] = target: T2, human IL-17A (human, UniProt Q16552 24-155); test: cell-based or functional assay; remark: listed apart in the source
T2 sequence (Q16552 24-155 limits assumed): as the sequence (Q16552 24-155) above

human IL-17A [5] = target: T2, human IL-17A; test: ELISA, captured antibody, serially diluted biotin-IL-17 (Example 1.5.1)
Method: The following protocol is used to characterize the binding of IL-17 antibodies to human IL-17 by enzyme-linked immunosorbent assay (ELISA). […] 1. Coat ELISA plate with 50 μl per well of Goat anti Mouse IgG-Fc at 2 ug/ml, overnight at 4° C. […] 2. Wash plate 3×PBS/Tween. […] 3. Add 50 μl Mab diluted to 1 μg/ml in PBS/0.1% BSA to appropriate wells. Incubate 1 hr at room temperature (RT). […] 4. Wash plate 3× with PBS/Tween. […] 5. Add 50 μl of serial diluted biotin-IL17 (human IL-17, IL-17A/F, cyno IL-17) to appropriate wells. Incubate 1 hr at room temperature (RT). […] 6. Wash plate 3× with PBS/Tween. […] 7. […] Incubate 1 hr at RT. […] 8. Wash plate 3× with PBS/Tween. […] 9. […] 10. Stop reaction with 50 μl 2N H₂SO₄. […] Read absorbance at 450 nm.

Sequence of cynomolgus monkey IL-17A (A0A2K5TTB0 entry or part of it): as the sequence (Q16552 24-155) above, with T3A, P8S, N34S, I77V, N78K, P104R counted along it

| Binder | Potency (pM), IL-17-driven IL-6 production in HS27 cells (human IL-17A [1]) [pM] | Potency (pM), IL-17-driven IL-6 production in HS27 cells (cynomolgus monkey IL-17A) [pM] | EC50 (human IL-17A [2]) [nM] | Potency (pM), IL-17-driven IL-6 production in HS27 cells [3] [pM] | Potency (pM), IL-17-driven IL-6 production in HS27 cells (human IL-17A/F) [pM] | Potency (pM), IL-17-driven IL-6 production in HS27 cells (human IL-17A [4]) [pM] | EC50 (human IL-17A [5]) [nM] |
| --- | --- | --- | --- | --- | --- | --- | --- |
| IL17-h5C5.2 (antibody, V domains shown, IgG; constant regions not specified) VH: EVQLVQSGAEVKKPGASVKVSCKASGYTFTDYEFHWVRQAPGQGLEWMGVIHPGNGGTAYNQNFRDRVTITADKSTSTAYMELSSLRSEDTAVYYCARFLTYEGYFDYWGQGTLVTVSS VL: NIVMTQTPKFLLVSPGDRVTITCKASQSVSIDVGWFQQKPGQSPKLLIYHASNRYTGVPDRFTGSGYGTDFTFTVNTVQAEDLAVYFCQQDYSSPYTFGGGTKLELKR | 6 | 11 | 1.2 | – | – | – | – |
| IL17-h5C5.11 (antibody, V domains shown, IgG; constant regions not specified) VH: EVQLVQSGAEVKKPGASVKVSCKASGYTFTDYEFHWVRQAPGQGLEWMGVIHPGNGGTAYNQNFRDRVTITADKSTSTAYMELSSLRSEDTAVYYCARFLTYEGYFDYWGQGTLVTVSS VL: EIVMTQSPATLSVSPGERATLSCKASQSVSIDVGWYQQKPGQAPRLLIYHASNRYTGIPARFSGSGSGTDFTLTISSLQPEDFAVYYCQQDYSSPYTFGQGTKLEIKR | 115 | 90 | 0.03 | – | – | – | – |
| B6-44 (antibody, V domains shown) VH: EVQLVQSGAEVKKPGSSVKVSCKASGGSFLSYGFSWVRQAPGQGLEWMGGITPFFGLADYAQKFQGRVTITADESTTTAYMELSGLTSDDTAVYYCARESSEFWNGYYCTQDFDLWGQGTTVTVSS VL: EIVLTQSPDFQSVTPKEKVTITCRASQDIGSDLHWYQQKPDQSPKLLIKYASNSISGVPSRFSGSGSGTDFTLTINGLEAEDAGTYYCHQTAYLPQTFGPGTKVDIK | – | – | – | 65 | 288 | 120 | – |
| IL17-G9-1 (antibody, V domains shown) VH: EVQLLESGGGVVQPGRSLRLSCAASGFIFSNYGMHWVRQAPGKGLEWVAVISYDGSNKYYADSVKGRFTISRDNSKNTLYLEMNSLRPEDTAVYYCAKVGASGDYYYSYGLDVWGQGTTVTVSS VL: QSVLTQPPSASGTPGQTVSISCSGSHSNIGRHPVDWYQQVPGAAPKLLMYYGGYRPSGVPDRFSGSQSGTSASLAISGLQSEDEADYYCATWDDRLVGYVFGSGTKVTVLG | – | – | – | 604 | 99 | 27 | 0.13 |
| IL17-G9-2 (antibody, V domains shown) VH: EVQLLESGGGVVQPGRSLRLSCAASGFIFRNYGMHWVRQAPGKGLEWVAVISYDGSNKYYADSVKGRFTISRDNSKNTLYLEMNSLRPEDTAVYYCAKVGASGDYYYSYGLDVWGQGTTVTVSS VL: QSVLTQPPSASGTPGQTVSISCSGSNSNIGRHPVDWYQQVPGAAPKLLIYYDDQRPSGVPDRFSGSQSGTSASLAISGLQSEDEADYYCATWDDSLGGYVFGSGTKVTVLG | – | – | – | 157 | 147 | 24 | 0.18 |
| IL17-G9-M2 (antibody, V domains shown) VH: EVQLLESGGGVVQPGRSLRLSCAASGFIFSNYGMHWVRQAPGKGLEWVAVISYDGSNKYYADSVKGRFTISRDNSKNTLYLEMNSLRPEDTAVYYCAKVGASGDYYYSYGLDVWGQGTTVTVSS VL: QSVLTQPPSASGTPGQTVSISCSGHNSNIGYHYVHWYQQVPGAAPKLLIYGDGWRPSGVPDRFSGSQSGTSASLAISGLQSEDEADYYCGTWDDWLGGYVFGTGTKVTVLG | – | – | – | 105 | 44 | 38 | 0.08 |
| IL17-G9-4 (antibody, V domains shown, no own VH entry is printed) VH: EVQLLESGGGVVQPGRSLRLSCAASGFIFSNYGMHWVRQAPGKGLEWVAVISYDGSNKYYADSVKGRFTISRDNSKNTLYLEMNSLRPEDTAVYYCAKVGASGDYYYSYGLDVWGQGTTVTVSS VL: QSVLTQPPSASGTPGQTVSISCSGRQSNIGRHYVDWYQQVPGAAPKLLMYYDSIRPSGVPDRFSGSQSGTSASLAISGLQSEDEADYYCATWDDSLGGYVFGSGTKVTVLG | – | – | – | 247 | 119 | 38 | 0.06 |
